Experimental findings from publication doi:10.1101/212290 (bioRxiv, 2017) are described below.

The target in this assay is IscU-IscS complex (E. coli, UniProt P0A6B7;P0ACD4, biotin (site not stated)). Put plainly: BLI.
Chain of IscU-IscS complex (P0A6B7 whole entry, chain 1 of 2): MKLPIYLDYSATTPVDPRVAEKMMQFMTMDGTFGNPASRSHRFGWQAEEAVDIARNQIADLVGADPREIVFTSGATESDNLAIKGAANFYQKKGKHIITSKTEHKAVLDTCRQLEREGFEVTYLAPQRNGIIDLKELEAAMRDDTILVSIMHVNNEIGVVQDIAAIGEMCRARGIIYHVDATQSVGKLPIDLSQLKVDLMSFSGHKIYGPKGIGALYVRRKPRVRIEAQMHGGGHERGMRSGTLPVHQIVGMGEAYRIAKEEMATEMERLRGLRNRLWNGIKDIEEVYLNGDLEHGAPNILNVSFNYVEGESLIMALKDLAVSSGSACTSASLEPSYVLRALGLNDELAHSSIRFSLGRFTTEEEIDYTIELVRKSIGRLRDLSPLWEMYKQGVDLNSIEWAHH
Chain of IscU-IscS complex (P0ACD4 2-128, chain 2 of 2): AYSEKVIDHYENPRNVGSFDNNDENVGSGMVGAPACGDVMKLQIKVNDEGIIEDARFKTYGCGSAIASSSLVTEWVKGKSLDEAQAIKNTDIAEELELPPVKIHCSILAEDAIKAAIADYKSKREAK

B1: IscX (natural protein)
chain: MGLKWTDSREIGEALYDAYPDLDPKTVRFTDMHQWICDLEDFDDDPQASNEKILEAILLVWLDEAE
modifications: most likely a mixed disulfide with beta-mercaptoethanol (+76 Da) on the majority of the protein
B1 came in with a Kd of 8 ± 2 µM.

As a reminder, the Kd is a measure of binding affinity in units of concentration. A low value points to a tighter complex.
